According to US20170209529A1 (BRIGHAM AND WOMEN S HOSPITAL, published 2017):
“And” between values parts separate entries of the source, which are not always exact repeats. Equal entries are not always repeated. Bridge positions count the residues as written; N and C are the ends.

Key:
[1] = target: T1, soluble human FcRn (shFcRn) (human, UniProt P55899 24-297; P61769 21-119); assay: SPR (Biacore), immobilized shFcRn, pH 6, steady-state fit
T1 construct: For crystallography it was expressed in CHOK1SV cells and deglycosylated with PNGaseF; biotinylated for phage selection; also called hFcRn/β2m; FcRn-biotin

[2] = target: T1, soluble human FcRn (shFcRn); assay: SPR (Biacore), immobilized shFcRn, pH 7.4
[3] = target: T1, soluble human FcRn (shFcRn); assay: SPR (Biacore), Kd pH 7.4 divided by Kd pH 6.0
[4] = target: T1, soluble human FcRn (shFcRn); assay: SPR (Biacore), immobilized shFcRn, pH 6, steady-state fit; remark: listed apart in the source
[5] = target: T1, soluble human FcRn (shFcRn); assay: SPR (Biacore), immobilized shFcRn, pH 6

T1 sequence (P55899 24-297 limits assumed, chain 1 of 2): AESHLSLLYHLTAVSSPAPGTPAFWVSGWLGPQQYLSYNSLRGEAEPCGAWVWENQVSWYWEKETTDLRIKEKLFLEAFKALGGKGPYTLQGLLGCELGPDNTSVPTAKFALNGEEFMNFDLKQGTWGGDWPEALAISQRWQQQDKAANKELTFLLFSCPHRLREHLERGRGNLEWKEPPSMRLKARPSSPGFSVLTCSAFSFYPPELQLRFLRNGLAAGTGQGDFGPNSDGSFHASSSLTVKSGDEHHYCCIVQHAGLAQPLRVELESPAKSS
T1 sequence (P61769 21-119 limits assumed, chain 2 of 2): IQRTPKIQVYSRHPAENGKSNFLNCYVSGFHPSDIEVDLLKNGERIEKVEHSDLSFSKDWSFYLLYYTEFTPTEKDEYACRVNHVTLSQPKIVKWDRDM

Binder	Kd [1] [µM]	Kd [2] [µM]	Kd Ratio 7.4/6.0 [3]	Kd [4]	binding result [5]
Ac-AYFCTKWKHGWCEEV-NH2 (disulfide 4-12 (inferred)) [SYN1542]	13.8				
Ac-RAFCTKWKHGWCEEV-NH2 (disulfide 4-12 (inferred)) [SYN1543]	67.5				
Ac-RYACTKWKHGWCEEV-NH2 (disulfide 4-12 (inferred)) [SYN1544]	7.7				
Ac-RYFCAKWKHGWCEEV-NH2 (disulfide 4-12 (inferred)) [SYN1545]	9.3				
Ac-RYFCTAWKHGWCEEV-NH2 (disulfide 4-12 (inferred)) [SYN1546]	14.2				
Ac-RYFCTKWAHGWCEEV-NH2 (disulfide 4-12 (inferred)) [SYN1548]	9.3				
Ac-RYFCTKWKAGWCEEV-NH2 (disulfide 4-12 (inferred)) [SYN1549]	27.4				
Ac-RYFCTKWKHAWCEEV-NH2 (disulfide 4-12 (inferred)) [SYN1550]	39.4				
Ac-RYFCTKWKHGWCEAV-NH2 (disulfide 4-12 (inferred)) [SYN1553]	9.5				
Ac-AMTCKWDDGFSCEYV-NH2 (disulfide 4-12 (inferred)) [SYN1144]		29.1	23.3	1.25 µM	
Ac-YMTCKADDGFSCEYV-NH2 (disulfide 4-12 (inferred)) [SYN1148]					no binding
Ac-YMTCKWADGFSCEYV-NH2 (disulfide 4-12 (inferred)) [SYN1149]		12	7.8	1.54 µM	
Ac-YMTCKWDDAFSCEYV-NH2 (disulfide 4-12 (inferred)) [SYN1151]		20.7	25	1.5 µM and 0.83 µM	
Ac-YMTCKWDDGFSCAYV-NH2 (disulfide 4-12 (inferred)) [SYN1154]		9.2	20		
Ac-YMTCKWDDGFSCEAV-NH2 (disulfide 4-12 (inferred)) [SYN1155]		17.3	9.8	1.76 µM	
Ac-YMTCKWDDGFSCEYA-NH2 (disulfide 4-12 (inferred)) [SYN1156]		22	38	0.58 µM	
Ac-MTCKWDDGFSCEYV-NH2 (disulfide 3-11 (inferred)) [SYN1161]				1.21 µM and 1.17 µM	
Ac-AGVMKCWWDEEMLCRAFGTGGGK-NH2 (disulfide 6-14 (inferred)) [SYN531]		44.4	99	0.45 µM and 0.3 µM	
Ac-VMKCWWDEEMLCRAF-NH2 (disulfide 4-12 (inferred)) [SYN1532]		17.3	112	0.154 µM	
Ac-VMHCWWDEEMLCRAF-NH2 (disulfide 4-12 (inferred)) [SYN1533]		59.1	106	0.558 µM	
Ac-VMRCWWDEEMLCRAF-NH2 (disulfide 4-12 (inferred)) [SYN1534]		20.2	125	0.162 µM	
Ac-VMKCFWDEEMLCRAF-NH2 (disulfide 4-12 (inferred)) [SYN1535]		91.3	35	2.6 µM	

Binder	Kd [1] [µM]	Kd [2] [µM]	Kd Ratio 7.4/6.0 [3]	Kd [4]	binding result [5]
Ac-VMKCWWDEEMLCEAF-NH2 (disulfide 4-12 (inferred)) [SYN1538]		18.9	71	0.267 µM	
Ac-VMKCWWDEEMLCRYF-NH2 (disulfide 4-12 (inferred)) [SYN1539]		8.6	83	0.104 µM	
Ac-VMKCWWDEEMLCRAV-NH2 (disulfide 4-12 (inferred); not fully specified) [SYN1540A]		45.7	80	0.572 µM	
Ac-VMKCWWDEEMLCRAV-NH2 (disulfide 4-12 (inferred); not fully specified) [SYN1540B]				0.702 µM	
Ac-GRYFCTKWKHGWCEEVGTGGGK-NH2 (disulfide 5-13 (inferred)) [SYN1705]	0.84				
Ac-RYFCTKWKHGWCEEVGTGGGK-NH2 (disulfide 4-12 (inferred)) [SYN1706]	0.9				
Ac-AGRYFCTKWKHGWCEEVGTGGG-NH2 (disulfide 6-14 (inferred)) [SYN1707]	0.49				
Ac-AGRYFCTKWKHGWCEEVGTGG-NH2 (disulfide 6-14 (inferred)) [SYN1708]	0.57				
Ac-AGRYFCTKWKHGWCEEVGTG-NH2 (disulfide 6-14 (inferred)) [SYN1709]	0.68				
Ac-AGRYFCTKWKHGWCEEVGT-NH2 (disulfide 6-14 (inferred)) [SYN1710]	0.59				
Ac-AGRYFCTKWKHGWCEEVG-NH2 (disulfide 6-14 (inferred)) [SYN1711]	1.56				
Ac-AGRYFCTKWKHGWCEEV-NH2 (disulfide 6-14 (inferred)) [SYN1712]	4.62				
Ac-VMHCFWDEEFKCDQG-NH2 (disulfide 4-12 (inferred)) [SYN1197]		62	84	0.74 µM	
Ac-VMACFWDEEFKCDQG-NH2 (disulfide 4-12 (inferred)) [SYN1215]				2.84 µM	
Ac-VMHCFWDEAFKCDQG-NH2 (disulfide 4-12 (inferred)) [SYN1216]		186	52	3.6 µM	
Ac-YMHCFWDEEFKCDQG-NH2 (disulfide 4-12 (inferred)) [SYN1256]		50	69	0.72 µM	
Ac-VMHCFWDEGFKCDQG-NH2 (disulfide 4-12 (inferred)) [SYN1257]		40		1.45 µM	
Ac-VMHCFWDEEFKCEQG-NH2 (disulfide 4-12 (inferred)) [SYN1258]		24	65	0.37 µM	
Ac-VMHCFWDEEFKCDYG-NH2 (disulfide 4-12 (inferred)) [SYN1259]		12	132	0.091 µM	
Ac-VMHCFWDEEFKCDQV-NH2 (disulfide 4-12 (inferred)) [SYN1260]		22	73	0.3 µM	
Ac-VMHCFWDEEFRCDYG-NH2 (disulfide 4-12 (inferred)) [SYN1381]		4.9	82	0.06 µM	
Ac-VMHCFWDEAFRCDQG-NH2 (disulfide 4-12 (inferred)) [SYN1382]		112	25	4.4 µM	
